The source of these data is article PMC4601014 (Scientific Reports, 2015).

Broadly, the Kd is the concentration at which binding is half-saturated. A lower Kd goes with higher affinity.

In the test the target is His/S-ΔIBB importin-α1 (mouse, residues 70–529), wild-type (mouse, UniProt P52293 70-529). In words: ELISA. As to conditions: both partners purified. In general terms: ELISA stands for enzyme-linked immunosorbent assay.

B1: GST-NP ncNLS, wild-type (peptide)
chain: ASQGTKRSYEQMET
notes: also called GST-tagged ncNLS; not shown: GST, N-terminal, kept
Molecule B1 came in with a Kd of 1.7 µM.
